Tested on: pancreatic acinar cells
Test: Effect of growth factors on insulin-positive cell induction in main culture of pancreatic acinar cells
Format: cell-based, mouse
Details: day 7 of culture; EGF 20 ng/ml, HGF, FGF7 and FGF10 10 ng/ml, GLP-1 30 ng/ml; rank among growth factors (FIG. 8B)
Experimental: Eight-week old male mice (C57B1/6Cr Slc)(Japan SLC, Inc.: Hamamatsu, Japan) were anesthetized with 50 mg/kg of Nembtal (Dainippon Pharma Co., Ltd.: Osaka, Japan) and subjected to laparotomy. The choledoch duct was ligated near the position where it opens to the duodenum. Using a 27G winged needle (Terumo Corporation: Tokyo, Japan), 2-3 ml of Hank's buffer containing 0.05% collagenase P (Roche: Basel, Switzerland) and 10% fetal bovine serum was infused from the liver side. The pancreas, now swollen, was extracted and digested in 5 ml of Hank's buffer per pancreas for 18 minutes at 37° C. The digested pancreas then was made to pass through a 14G indwelling needle in both directions twice to disperse the pancreatic cells, which washed well with Hank's buffer containing 0.1% bovine serum albumin (Sigma: Saint Louis, Mo., USA). The pancreatic cells thus obtained were suspended in a mixed solution (solution A) consisting of 8.3% Ficoll 400 (Amersham Bioscience: Uppsala, Sweden) and 16.7% Conray 400 (Daiichi Pharmaceutical, Tokyo, Japan), and after a 87.5%-diluted solution of solution A and then a 50%-diluted solution of solution A were placed on it in the order, centrifuged (2,000 rpm, 10 min). […]

B1: fibroblast growth factor 10 (protein, UniProt O15520 38-208, looked up)
Fibroblast growth factor 10: QALGQDMVSPEATNSSSSSFSSPSSAGRHVRSYNHLQGDVRWRKLFSFTKYFLKIEKNGKVSGTKKENCPYSILEITSVEIGVVAVKAINSNYYLAMNKKGKLYGSKEFNNDCKLKERIEENGYNTYASFNWQHNGRQMYVALNGKGAPRRGQKTRRKNTSAHFLPMVVHS
notes: fibroblast growth factor 10 (R&D Systems), growth factor added to the culture medium
  proportion of insulin-positive cells: this was followed by FGF10 and HGF

From patent US20070231897A1, “Induction of Insulin Secreting Cell” (KYOTO UNIVERSITY, priority 2004, published 2007)
